Sequences and labels used below:
B1: CIgG4D2A1(RS) (Fc fusion)
chain 1: GPPCPPCPAPEFLGGPSVFLFPPKPKDTLMISRTPEVTCVVVDVSQEDPEVQFNWYVDGVEVHNAKTKPREEQFNSTYRVVSVLTVLHQDWLNGKEYKCKVSNKGLPSSIEKTISKAKGQPREPQVYTLPPCQEEMTKNQVSLWCLVKGFYPSDIAVEWESNGQPENNYKTTPPVLDSDGSFFLYSRLTVDKSRWQEGNVFSCSVMHEALHNHYTQKSLSLSLGKRSDVQLQESGGGLVEAGGSLRLSCVASGRTFSGWSMGWFRQAPGKEREFVAAISWVGSWIGGTVYSNSVKGRFTISRDNARTTVYLQMNSLKPEDTAVYFCAAANSETPRIFASEYDYWGQGTQVTVS
chain 2: GPPCPPCPAPEFLGGPSVFLFPPKPKDTLMISRTPEVTCVVVDVSQEDPEVQFNWYVDGVEVHNAKTKPREEQFNSTYRVVSVLTVLHQDWLNGKEYKCKVSNKGLPSSIEKTISKAKGQPREPQVCTLPPSQEEMTKNQVSLSCAVKGFYPSDIAVEWESNGQPENNYKTTPPVLDSDGSFFLVSRLTVDKSRWQEGNVFSCSVMHEALHNHYTQKSLSLSLGKRSEVQLLESGGGLVQPGGSLRLSCAASGFTFGNYDMAWVRQAPGKRPEWVSSIDTGGDITHYADSVKGRFTISRDNAKNTLYLQMNSLRPEDTAVYWCATDEEYALGPNEFDYYGQGTLVTVSS
B2: NIgG4D2A1(G4S)1 (Fc fusion)
chain 1: DVQLQESGGGLVEAGGSLRLSCVASGRTFSGWSMGWFRQAPGKEREFVAAISWVGSWIGGTVYSNSVKGRFTISRDNARTTVYLQMNSLKPEDTAVYFCAAANSETPRIFASEYDYWGQGTQVTVSGGGGSGPPCPPCPAPEFLGGPSVFLFPPKPKDTLMISRTPEVTCVVVDVSQEDPEVQFNWYVDGVEVHNAKTKPREEQFNSTYRVVSVLTVLHQDWLNGKEYKCKVSNKGLPSSIEKTISKAKGQPREPQVYTLPPCQEEMTKNQVSLWCLVKGFYPSDIAVEWESNGQPENNYKTTPPVLDSDGSFFLYSRLTVDKSRWQEGNVFSCSVMHEALHNHYTQKSLSLSLGK
chain 2: EVQLLESGGGLVQPGGSLRLSCAASGFTFGNYDMAWVRQAPGKRPEWVSSIDTGGDITHYADSVKGRFTISRDNAKNTLYLQMNSLRPEDTAVYWCATDEEYALGPNEFDYYGQGTLVTVSSGGGGSGPPCPPCPAPEFLGGPSVFLFPPKPKDTLMISRTPEVTCVVVDVSQEDPEVQFNWYVDGVEVHNAKTKPREEQFNSTYRVVSVLTVLHQDWLNGKEYKCKVSNKGLPSSIEKTISKAKGQPREPQVCTLPPSQEEMTKNQVSLSCAVKGFYPSDIAVEWESNGQPENNYKTTPPVLDSDGSFFLVSRLTVDKSRWQEGNVFSCSVMHEALHNHYTQKSLSLSLGK
B3: NIgG4D2A1(G4S)2 (Fc fusion)
chain 1: DVQLQESGGGLVEAGGSLRLSCVASGRTFSGWSMGWFRQAPGKEREFVAAISWVGSWIGGTVYSNSVKGRFTISRDNARTTVYLQMNSLKPEDTAVYFCAAANSETPRIFASEYDYWGQGTQVTVSGGGGSGGGGSGPPCPPCPAPEFLGGPSVFLFPPKPKDTLMISRTPEVTCVVVDVSQEDPEVQFNWYVDGVEVHNAKTKPREEQFNSTYRVVSVLTVLHQDWLNGKEYKCKVSNKGLPSSIEKTISKAKGQPREPQVYTLPPCQEEMTKNQVSLWCLVKGFYPSDIAVEWESNGQPENNYKTTPPVLDSDGSFFLYSRLTVDKSRWQEGNVFSCSVMHEALHNHYTQKSLSLSLGK
chain 2: EVQLLESGGGLVQPGGSLRLSCAASGFTFGNYDMAWVRQAPGKRPEWVSSIDTGGDITHYADSVKGRFTISRDNAKNTLYLQMNSLRPEDTAVYWCATDEEYALGPNEFDYYGQGTLVTVSSGGGGSGGGGSGPPCPPCPAPEFLGGPSVFLFPPKPKDTLMISRTPEVTCVVVDVSQEDPEVQFNWYVDGVEVHNAKTKPREEQFNSTYRVVSVLTVLHQDWLNGKEYKCKVSNKGLPSSIEKTISKAKGQPREPQVCTLPPSQEEMTKNQVSLSCAVKGFYPSDIAVEWESNGQPENNYKTTPPVLDSDGSFFLVSRLTVDKSRWQEGNVFSCSVMHEALHNHYTQKSLSLSLGK
B4: CIgG4D2A1(G4S)1 (Fc fusion)
chain 1: GPPCPPCPAPEFLGGPSVFLFPPKPKDTLMISRTPEVTCVVVDVSQEDPEVQFNWYVDGVEVHNAKTKPREEQFNSTYRVVSVLTVLHQDWLNGKEYKCKVSNKGLPSSIEKTISKAKGQPREPQVYTLPPCQEEMTKNQVSLWCLVKGFYPSDIAVEWESNGQPENNYKTTPPVLDSDGSFFLYSRLTVDKSRWQEGNVFSCSVMHEALHNHYTQKSLSLSLGKGGGGSDVQLQESGGGLVEAGGSLRLSCVASGRTFSGWSMGWFRQAPGKEREFVAAISWVGSWIGGTVYSNSVKGRFTISRDNARTTVYLQMNSLKPEDTAVYFCAAANSETPRIFASEYDYWGQGTQVTVS
chain 2: GPPCPPCPAPEFLGGPSVFLFPPKPKDTLMISRTPEVTCVVVDVSQEDPEVQFNWYVDGVEVHNAKTKPREEQFNSTYRVVSVLTVLHQDWLNGKEYKCKVSNKGLPSSIEKTISKAKGQPREPQVCTLPPSQEEMTKNQVSLSCAVKGFYPSDIAVEWESNGQPENNYKTTPPVLDSDGSFFLVSRLTVDKSRWQEGNVFSCSVMHEALHNHYTQKSLSLSLGKGGGGSEVQLLESGGGLVQPGGSLRLSCAASGFTFGNYDMAWVRQAPGKRPEWVSSIDTGGDITHYADSVKGRFTISRDNAKNTLYLQMNSLRPEDTAVYWCATDEEYALGPNEFDYYGQGTLVTVSS
B5: NIgG4D2A1(G4S)3 (Fc fusion)
chain 1: DVQLQESGGGLVEAGGSLRLSCVASGRTFSGWSMGWFRQAPGKEREFVAAISWVGSWIGGTVYSNSVKGRFTISRDNARTTVYLQMNSLKPEDTAVYFCAAANSETPRIFASEYDYWGQGTQVTVSGGGGSGGGGSGGGGSGPPCPPCPAPEFLGGPSVFLFPPKPKDTLMISRTPEVTCVVVDVSQEDPEVQFNWYVDGVEVHNAKTKPREEQFNSTYRVVSVLTVLHQDWLNGKEYKCKVSNKGLPSSIEKTISKAKGQPREPQVYTLPPCQEEMTKNQVSLWCLVKGFYPSDIAVEWESNGQPENNYKTTPPVLDSDGSFFLYSRLTVDKSRWQEGNVFSCSVMHEALHNHYTQKSLSLSLGK
chain 2: EVQLLESGGGLVQPGGSLRLSCAASGFTFGNYDMAWVRQAPGKRPEWVSSIDTGGDITHYADSVKGRFTISRDNAKNTLYLQMNSLRPEDTAVYWCATDEEYALGPNEFDYYGQGTLVTVSSGGGGSGGGGSGGGGSGPPCPPCPAPEFLGGPSVFLFPPKPKDTLMISRTPEVTCVVVDVSQEDPEVQFNWYVDGVEVHNAKTKPREEQFNSTYRVVSVLTVLHQDWLNGKEYKCKVSNKGLPSSIEKTISKAKGQPREPQVCTLPPSQEEMTKNQVSLSCAVKGFYPSDIAVEWESNGQPENNYKTTPPVLDSDGSFFLVSRLTVDKSRWQEGNVFSCSVMHEALHNHYTQKSLSLSLGK
B6: NIgG4D2A1(RS) (Fc fusion)
chain 1: DVQLQESGGGLVEAGGSLRLSCVASGRTFSGWSMGWFRQAPGKEREFVAAISWVGSWIGGTVYSNSVKGRFTISRDNARTTVYLQMNSLKPEDTAVYFCAAANSETPRIFASEYDYWGQGTQVTVSRSGPPCPPCPAPEFLGGPSVFLFPPKPKDTLMISRTPEVTCVVVDVSQEDPEVQFNWYVDGVEVHNAKTKPREEQFNSTYRVVSVLTVLHQDWLNGKEYKCKVSNKGLPSSIEKTISKAKGQPREPQVYTLPPCQEEMTKNQVSLWCLVKGFYPSDIAVEWESNGQPENNYKTTPPVLDSDGSFFLYSRLTVDKSRWQEGNVFSCSVMHEALHNHYTQKSLSLSLGK
chain 2: EVQLLESGGGLVQPGGSLRLSCAASGFTFGNYDMAWVRQAPGKRPEWVSSIDTGGDITHYADSVKGRFTISRDNAKNTLYLQMNSLRPEDTAVYWCATDEEYALGPNEFDYYGQGTLVTVSSRSGPPCPPCPAPEFLGGPSVFLFPPKPKDTLMISRTPEVTCVVVDVSQEDPEVQFNWYVDGVEVHNAKTKPREEQFNSTYRVVSVLTVLHQDWLNGKEYKCKVSNKGLPSSIEKTISKAKGQPREPQVCTLPPSQEEMTKNQVSLSCAVKGFYPSDIAVEWESNGQPENNYKTTPPVLDSDGSFFLVSRLTVDKSRWQEGNVFSCSVMHEALHNHYTQKSLSLSLGK

The test deals with mixture of three Der p 2 specific recombinant human IgE clones H10, H12, P4E (human) (UniProt P01854). As to the kind of experiment: RBL-SX38 IgE displacement, FACS.
mixture of three Der p 2 specific recombinant human IgE clones H10, H12, P4E (human), sequence (P01854 other isoform, or with tags, fused parts or gaps): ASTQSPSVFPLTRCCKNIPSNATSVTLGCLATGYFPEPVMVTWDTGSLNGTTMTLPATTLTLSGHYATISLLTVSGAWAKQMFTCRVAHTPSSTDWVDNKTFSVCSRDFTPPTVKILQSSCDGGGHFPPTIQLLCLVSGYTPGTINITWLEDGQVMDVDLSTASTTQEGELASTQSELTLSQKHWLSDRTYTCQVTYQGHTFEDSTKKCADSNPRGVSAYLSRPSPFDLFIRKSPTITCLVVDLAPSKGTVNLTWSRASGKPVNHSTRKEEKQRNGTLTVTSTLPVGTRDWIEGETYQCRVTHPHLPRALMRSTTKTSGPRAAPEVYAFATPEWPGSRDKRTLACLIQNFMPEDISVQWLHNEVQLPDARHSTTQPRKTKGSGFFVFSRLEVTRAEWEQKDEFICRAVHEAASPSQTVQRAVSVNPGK
Consider B1, for which the Max effect/effect 1 µM is 6%.
Broadly, the EC50 is the concentration needed to bring the measured effect to its halfway point. For the molecule B2, the EC50 was 8.7 nM and the Max effect/effect 1 µM is 97%.
On the same counts, the results for B3 are 6.3 nM and 96%.
For B4, in that order: 126 nM and 95%.
For B5, in that order: 3.7 nM and 88%.
Consider B6, for which the EC50 amounted to 12.3 nM and the Max effect/effect 1 µM was determined as 97%.

These data come from patent US20250171562A1.
